Assay [1] addresses T1, human EphA4 extracellular region-SEAP-His protein (human, UniProt P54764 20-547).
T1 construct: also called human EphA4 extracellular region-SEAP-His 10; not shown: secretory alkaline phosphatase (SEAP); histidine tag
In words: competition ELISA; captured human EphA4 extracellular region-SEAP-His, competitor biotinylated human EphrinA5-Fc chimera (0.7 nM). On the procedure:
Anti-alkaline phosphatase antibodies (Thermo […]) were coated onto the wells of a 96-well plate (Nuns). After incubating at 4° C. overnight, the wells were blocked at room temperature for 1 hour by 1% Block Ace (DS Pharma Biomedical). After washing 3 times with 0.05% Tween 20/PBS (Thermo […]), human EphA4 extracellular region-SEAP-His protein was added to the wells (final concentration 10 nM), and incubated at room temperature for 1 hour. After washing 3 times, the ligand and serially diluted antibody A (0, 0.003, 0.01, 0.03, 0.1, 0.3, 1, 3, 10, 30, 100, 300, 1000, 3000 nM) were supplemented to the wells. Note that biotinylated human EphrinA5-Fc chimera (R&D Systems, final concentration 0.7 nM) and biotinylated human EphrinB3-Fc chimera (R&D Systems, final concentration 2.3 nM) were employed as ligands. After incubating at room temperature for 1 hour and washing 3 times, horseradish peroxidase-labeled streptavidin (GE Healthcare) was added, and incubated at room, temperature for 1 hour. After washing 3 times, TMBZ (3,3′,5,5 ′-tetramethylbenzidine, Sigma) solution was added to the wells, and incubated at room temperature for 2-5minutes. An equal amount of quenching solution (1 N H₂SO₄, Wako Pure Chemicals) was added to the wells, and absorbance at 450 nm was read by a microplate reader (Molecular Devices or PerkinElmer). […]
A general note: In an ELISA, binding on a coated surface is turned into a signal by an enzyme label.

In assay [2] the target is T2, mouse EphA4 extracellular region-SEAP-His protein (mouse).
T2 construct: also called mouse EphA4 extracellular region-SEAP-His 10
T2 sequence (chain, as listed by the source limits assumed): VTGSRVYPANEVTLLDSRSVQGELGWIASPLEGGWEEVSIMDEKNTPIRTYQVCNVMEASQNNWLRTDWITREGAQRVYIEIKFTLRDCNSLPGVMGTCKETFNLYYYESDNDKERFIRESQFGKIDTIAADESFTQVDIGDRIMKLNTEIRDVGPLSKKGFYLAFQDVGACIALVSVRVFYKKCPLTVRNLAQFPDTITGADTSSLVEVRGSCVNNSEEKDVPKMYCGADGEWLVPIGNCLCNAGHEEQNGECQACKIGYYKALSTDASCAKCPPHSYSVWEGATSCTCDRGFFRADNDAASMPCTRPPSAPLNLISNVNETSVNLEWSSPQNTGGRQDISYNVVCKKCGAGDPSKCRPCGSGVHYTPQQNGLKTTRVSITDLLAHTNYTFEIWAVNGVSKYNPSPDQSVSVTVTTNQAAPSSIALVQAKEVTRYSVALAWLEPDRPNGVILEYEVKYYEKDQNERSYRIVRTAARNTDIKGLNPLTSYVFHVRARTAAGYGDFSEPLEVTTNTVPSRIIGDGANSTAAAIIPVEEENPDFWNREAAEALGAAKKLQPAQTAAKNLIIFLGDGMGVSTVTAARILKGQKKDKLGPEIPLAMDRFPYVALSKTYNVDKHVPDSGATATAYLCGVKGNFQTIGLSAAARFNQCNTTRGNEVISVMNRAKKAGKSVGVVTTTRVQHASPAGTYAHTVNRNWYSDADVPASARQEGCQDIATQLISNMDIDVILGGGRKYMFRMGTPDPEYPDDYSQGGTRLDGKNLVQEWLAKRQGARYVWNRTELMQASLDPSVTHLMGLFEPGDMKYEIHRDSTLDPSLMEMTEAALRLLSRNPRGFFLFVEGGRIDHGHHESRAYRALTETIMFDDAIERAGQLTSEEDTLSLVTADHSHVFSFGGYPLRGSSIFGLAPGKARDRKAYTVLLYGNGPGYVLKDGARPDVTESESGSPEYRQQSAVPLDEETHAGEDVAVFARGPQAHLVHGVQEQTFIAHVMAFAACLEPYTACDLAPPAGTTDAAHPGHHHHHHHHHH
In words: competition ELISA; captured mouse EphA4 extracellular region-SEAP-His, competitor biotinylated mouse EphrinA1-Fc chimera (6 nM). On the procedure: Anti-alkaline phosphatase antibodies (Thermo […]) were coated onto the wells of a 96-well plate (Nunc). After incubating at 4° C. overnight, the wells were blocked at room temperature for 1 hour by 1% Block Ace (DS Pharma Biomedical). After washing 3 times with 0.02% Tween 20/PBS (Thermo […]), mouse EphA4 extracellular region-SEAP-His protein was added to the wells (final concentration 10 nM), and incubated at room temperature for 1 hour. After washing 3 times, the ligand and antibody A (0, 0.003, 0.01, 0.03, 0.1, 0.3, 1, 3, 10, 30, 100, 300, 1000, 3000 nM) were supplemented to the wells. Note that biotinylated mouse EphrinA1-Fc chimera (R&D Systems, final concentration 6 nM) and biotinylated mouse EphrinB2-Fc chimera (R&D Systems, final concentration 2.5 nM) were employed as ligands. After incubating at room temperature for 1 hour and washing 3 times, horseradish peroxidase-labeled streptavidin (GE Healthcare) was added, and incubated at room temperature for 1 hour. After washing 3 times, TMBZ (3,3′, 5,5′-tetramethylbenzidine, Sigma) solution was added to the wells, and incubated at room temperature for 2 minutes. An equal amount of quenching solution (1 N H₂SO₄, Wako Pure Chemicals) was added to the wells, and absorbance at 450 nm was read by a microplate reader (PerkinElmer). […]

T1 sequence (P54764 20-547): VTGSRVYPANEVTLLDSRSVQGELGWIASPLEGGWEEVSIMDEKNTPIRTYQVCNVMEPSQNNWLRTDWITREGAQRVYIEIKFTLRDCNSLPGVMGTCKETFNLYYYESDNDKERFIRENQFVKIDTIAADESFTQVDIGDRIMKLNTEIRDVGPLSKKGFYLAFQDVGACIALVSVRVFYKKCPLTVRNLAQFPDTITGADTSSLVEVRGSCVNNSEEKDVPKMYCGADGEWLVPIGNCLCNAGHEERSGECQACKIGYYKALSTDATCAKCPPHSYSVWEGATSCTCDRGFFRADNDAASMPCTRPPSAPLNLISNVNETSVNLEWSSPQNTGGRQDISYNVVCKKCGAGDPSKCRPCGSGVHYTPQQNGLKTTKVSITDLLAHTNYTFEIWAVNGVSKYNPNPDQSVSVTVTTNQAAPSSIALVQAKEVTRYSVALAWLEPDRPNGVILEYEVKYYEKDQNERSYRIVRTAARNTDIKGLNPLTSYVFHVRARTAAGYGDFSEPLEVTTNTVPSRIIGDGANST

B1: humanized anti-EphA4 monoclonal antibody (antibody B) (antibody, human IgG2, V domains shown)
VH: QVQLVESGGGVVQPGRSLRLSCAVSGFSLTRFGVHWVRQAPGKGLEWVAVIWRGGSTDYNAAFMSRLTISKDNSKNTVYLQMNSLRAEDTAVYYCAKESLFGVYYDYGYYSMDYWGQGTTVTVSS
VL: DIQMTQSPSSLSASVGDRVTITCRASQEISGYLSWLQQKPGKAPKRLIYAASTLDSGVPSRFSGSRSGTEYTLTISSLQPEDFATYYCLQYASYPLTFGGGTKVEIKR
notes: expressed in Expi293F cells; also called humanized antibody of antibody A; HK2-42 / L1-8
As a reminder, the IC50 is the concentration that inhibits the measured activity by half. Read a low IC50 as greater potency in that assay. Turning to B1, the half-maximal inhibitory concentration (IC50) in assay [1] is about 4.9 nM; in assay [2] it was about 8.7 nM.

B2: mouse anti-EphA4 monoclonal antibody (antibody A) (antibody, mouse IgG1, kappa, V domains shown)
VH: QVQLKQSGPSLVQPSQSLSITCTVSGFSLTRYGVHWVRQSPGKGLEWLGVIWRGGSTDYNAAFMSRLSITKDNSKSQVFFKMNSLQADDTAIYYCAKESLFGVYYDYGYYSMDYWGQGTSVTVSS
VL: DIQMTQSPSSLSASLGERVSLTCRASQEISGYLSWLQQKPDGTIKRLIYAASTLDSGVPKRFSGSRSGSDYSLTISSLESEDFADYYCLQYASYPLTFGAGTKLELKR
notes: purified from hybridoma supernatant
On to B2, for which the figures for the IC50 in assay [1] and in assay [2] were about 2.8 nM and about 5.9 nM, respectively.

The values are drawn from patent US20240010735A1 (EISAI R AND D MANAGEMENT, published 2024).
